Experimental data taken from paper PMC10167949.
The star is where a group is joined. Biotin = O=C1N[C@H]2[C@H](CS[C@H]2CCCCC(=O)*)N1

Key:
[1] = molecular target: Phosphorylated MST2 kinase linker (pMST2-KL) (human) (UniProt Q13188)
[2] = molecular target: T1, Unphosphorylated full-length MST2 (MST2-FL) (human) (UniProt Q13188)
T1 sequence: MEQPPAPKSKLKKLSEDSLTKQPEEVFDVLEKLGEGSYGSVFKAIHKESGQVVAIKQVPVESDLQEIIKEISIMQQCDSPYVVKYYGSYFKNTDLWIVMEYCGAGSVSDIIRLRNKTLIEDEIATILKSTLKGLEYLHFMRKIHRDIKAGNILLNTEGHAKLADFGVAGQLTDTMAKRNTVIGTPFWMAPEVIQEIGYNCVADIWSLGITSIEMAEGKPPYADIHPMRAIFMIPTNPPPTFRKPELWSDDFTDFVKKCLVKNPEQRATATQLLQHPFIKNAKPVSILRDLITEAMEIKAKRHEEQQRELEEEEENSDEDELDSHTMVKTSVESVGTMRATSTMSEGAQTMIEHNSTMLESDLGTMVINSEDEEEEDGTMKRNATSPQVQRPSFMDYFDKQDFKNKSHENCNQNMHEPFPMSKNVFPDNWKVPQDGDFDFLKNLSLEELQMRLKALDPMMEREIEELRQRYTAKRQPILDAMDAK

[3] = molecular target: Phosphorylated MST2 kinase domain (pMST2-K) (human) (UniProt Q13188)
[4] = molecular target: Phosphorylated full-length MST2 (pMST2-FL) (human) (UniProt Q13188)

B1: peptide substrate (Biotin-…-NH2) (peptide)
peptide: Biotin-GGGENWYNTLKRKK-NH2
SMILES: CC(C)C[C@H](NC(=O)[C@@H](NC(=O)[C@H](CC(N)=O)NC(=O)[C@H](Cc1ccc(O)cc1)NC(=O)[C@H](Cc1c[nH]c2ccccc12)NC(=O)[C@H](CC(N)=O)NC(=O)[C@H](CCC(=O)O)NC(=O)CNC(=O)CNC(=O)CNC(=O)CCCC[C@@H]1SC[C@@H]2NC(=O)N[C@@H]21)[C@@H](C)O)C(=O)N[C@@H](CCCCN)C(=O)N[C@@H](CCCNC(=N)N)C(=O)N[C@@H](CCCCN)C(=O)N[C@@H](CCCCN)C(N)=O
Work on B1 yielded a Km^app peptide, radiometric kinase assay (steady state, 30°C) [1] of 35 µM, a Km^app peptide, radiometric kinase assay (steady state, 30°C) [2] of 139 µM and a Km^app peptide, radiometric kinase assay (steady state, 30°C) [3] of 27 µM. The Km^app peptide, radiometric kinase assay (steady state, 30°C) [4] was 32 µM.
